Experimental data: PMC13544220, “Glycemic and bodyweight effects of GIPR coding variation reflect differences in surface expression and intrinsic functional impairment” (Science Advances, 2026)

Columns and labels:
Format in all cases: cell-based, human
[1] = system: wild-type and variant SNAP-GIPR; assay: Single-concentration GIP cAMP response by HTRF in INS-1 cells; conditions: Fig S3E, mean
Method: (§1) All variants were tested in parallel on each occasion to control for transfection efficiency differences between experiments.

[2] = system: wild-type and variant SNAP-GIPR; assay: Single-concentration GIP cAMP response by HTRF in AD293 cells; conditions: Fig S3F, HTRF, mean;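 note: ratio to experiment-wide average response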
Method: as §1

[3] = system: wild-type and variant SNAP-GIPR; assay: cADDis cAMP imaging in AD293 cells, ensemble, expression-matched and per decile; conditions: Fig S3F, cADDis, mean
Method in brief: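 Per-cell cAMP from cADDis intensity over time, with cells excluded by IBMX/FSK response criteria. Expression matching used wild-type surface-SNAP deciles, top and bottom trimmed, mean of decile means. Ensemble values ignore deciles. Wide-field imaging at 37 °C in KRBH with 6 mM glucose, 0.1% BSA, 24 h post-transfection in AD293.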

[4] = system: wild-type and variant SNAP-GIPR; assay: Surface SNAP-GIPR expression (SNAP-tag labelling) in INS-1 cells; conditions: Fig 4G; Mean
Method in brief: (§2)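 Surface GIPR is quantified from wide-field images after labelling intact transfected cells with a membrane-impermeant SNAP probe at 500 nM for 10 min at room temperature. Specific signal, corrected for nontransfected cells, is normalized to the experiment-wide average or to wild-type.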

[5] = system: wild-type and variant SNAP-GIPR; assay: Constitutive and agonist-mediated internalization, reversible SNAP-tag labelling, AD293 cells; set-up: key to Internalisation, Vehicle / Internalisation, +GIP / Internalisation, GIP-only: % internalization: residual fluorescence after Mesna vs pre-Mesna; Surface expression: unit not given here; conditions: Mean; for +GIP internalisation (100 nM) / GIP-specific internalisation (100 nM) / Constitutive internalisation (100 nM) / Surface expression: Fig 4E; for +GIP internalisation (100 nM) / GIP-specific internalisation (100 nM): GIP 100 nM; for Internalisation, +GIP / Internalisation, GIP-only / Internalisation, Vehicle: Fig S4C, AD293
Method in brief: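 % internalization = residual specific fluorescence after Mesna / pre-Mesna value. Imaging in TNE buffer pH 8.6; second image 10 min post-Mesna.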

[6] = system: wild-type and variant SNAP-GIPR; assay: Surface SNAP-GIPR expression (SNAP-tag labelling) in AD293 cells; conditions: for AD293 Surface: Fig S3E, mean; for Surface SNAP-GIPR expression: sheet Fig 1C;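 for all read-outs here: scaled to the experimental average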
Method in brief: as §2

[7] = column repeated, paired with cAMP 100 nM

B1: WT (protein, UniProt P48546 22-466, looked up)
Gastric inhibitory …: RAETGSKGQTAGELYQRWERYRRECQETLAAAEPPSGLACNGSFDMYVCWDYAAPNATARASCPWYLPWHHHVAAGFVLRQCGSDGQWGLWRDHTQCENPEKNEAFLDQRLILERLQVMYTVGYSLSLATLLLALLILSLFRRLHCTRNYIHINLFTSFMLRAAAILSRDRLLPRPGPYLGDQALALWNQALAACRTAQIVTQYCVGANYTWLLVEGVYLHSLLVLVGGSEEGHFRYYLLLGWGAPALFVIPWVIVRYLYENTQCWERNEVKAIWWIIRTPILMTILINFLIFIRILGILLSKLRTRQMRCRDYRLRLARSTLTLVPLLGVHEVVFAPVTEEQARGALRFAKLGFEIFLSSFQGFLVSVLYCFINKEVQSEIRRGWHHCRLRRSLGEEQRQLPERAFRALPSGSGPGEVPTSRGLSSGTLPGPGNEASRELESYC
INS-1 cAMP (100 nM) [1]: 1.606 | AD293 100 pM HTRF [2]: 1.584 | AD293 100 nM HTRF [2]: 1.495 | AD293 100 pM cADDis [3]: 34.2953 | AD293 100 nM cADDis [3]: 38.14 | Surface expression [4]: 1.4278 | +GIP internalisation (100 nM) [5]: 0.9729 | GIP-specific internalisation (100 nM) [5]: 0.2717 | Constitutive internalisation (100 nM) [5]: 0.7012 | Surface expression [5]: 1.75 | Internalisation, +GIP [5]: 55.4256 | Internalisation, GIP-only [5]: 15.538 | Internalisation, Vehicle [5]: 39.8877 | AD293 Surface [6, 7]: 1.574 | AD293 Surface ([6]; paired with cAMP 100 pM): 1.574 | Surface SNAP-GIPR expression ([6]; replicate 1): 1.413 | Surface SNAP-GIPR expression ([6]; replicate 2): 1.272 | Surface SNAP-GIPR expression ([6]; replicate 3): 1.88 | Surface SNAP-GIPR expression ([6]; replicate 4): 1.444 | Surface SNAP-GIPR expression ([6]; replicate 5): 1.509 | Surface SNAP-GIPR expression ([6]; replicate 6): 1.344 | Surface SNAP-GIPR expression ([6]; replicate 7): 1.891 | Surface SNAP-GIPR expression ([6]; replicate 8): 1.028 | Surface SNAP-GIPR expression ([6]; replicate 9): 1.591 | Surface SNAP-GIPR expression ([6]; replicate 10): 1.397 | Surface SNAP-GIPR expression ([6]; replicate 11): 1.544 | Surface SNAP-GIPR expression ([6]; replicate 12): 1.527 | Surface SNAP-GIPR expression ([6]; replicate 13): 1.575 | Surface SNAP-GIPR expression ([6]; replicate 14): 1.588 | Surface SNAP-GIPR expression ([6]; replicate 15): 1.562 | Surface SNAP-GIPR expression ([6]; replicate 16): 1.285 | Surface SNAP-GIPR expression ([6]; replicate 17): 1.371 | Surface SNAP-GIPR expression ([6]; replicate 18): 1.43 | Surface SNAP-GIPR expression ([6]; replicate 19): 1.701 | Surface SNAP-GIPR expression ([6]; replicate 20): 1.486 | Surface SNAP-GIPR expression ([6]; replicate 21): 1.598 | Surface SNAP-GIPR expression ([6]; replicate 22): 1.477 | Surface SNAP-GIPR expression ([6]; replicate 23): 1.449 | Surface SNAP-GIPR expression ([6]; replicate 24): 1.623 | Surface SNAP-GIPR expression ([6]; replicate 25): 1.241 | Surface SNAP-GIPR expression ([6]; replicate 26): 1.004 | Surface SNAP-GIPR expression ([6]; replicate 27): 2.237 | Surface SNAP-GIPR expression ([6]; replicate 28): 2.105 | Surface SNAP-GIPR expression ([6]; replicate 29): 1.748 | Surface SNAP-GIPR expression ([6]; replicate 30): 1.831 | Surface SNAP-GIPR expression ([6]; replicate 31): 1.807 | Surface SNAP-GIPR expression ([6]; replicate 32): 1.314 | Surface SNAP-GIPR expression ([6]; replicate 33): 1.406 | Surface SNAP-GIPR expression ([6]; replicate 34): 1.597 | Surface SNAP-GIPR expression ([6]; replicate 35): 1.369 | Surface SNAP-GIPR expression ([6]; replicate 36): 1.658 | Surface SNAP-GIPR expression ([6]; replicate 37): 2.437 | Surface SNAP-GIPR expression ([6]; replicate 38): 2.543 | Surface SNAP-GIPR expression ([6]; replicate 39): 1.55 | Surface SNAP-GIPR expression ([6]; replicate 40): 1.34 | Surface SNAP-GIPR expression ([6]; replicate 41): 1.346

B2: E354Q (protein)
chain: RAETGSKGQTAGELYQRWERYRRECQETLAAAEPPSGLACNGSFDMYVCWDYAAPNATARASCPWYLPWHHHVAAGFVLRQCGSDGQWGLWRDHTQCENPEKNEAFLDQRLILERLQVMYTVGYSLSLATLLLALLILSLFRRLHCTRNYIHINLFTSFMLRAAAILSRDRLLPRPGPYLGDQALALWNQALAACRTAQIVTQYCVGANYTWLLVEGVYLHSLLVLVGGSEEGHFRYYLLLGWGAPALFVIPWVIVRYLYENTQCWERNEVKAIWWIIRTPILMTILINFLIFIRILGILLSKLRTRQMRCRDYRLRLARSTLTLVPLLGVHQVVFAPVTEEQARGALRFAKLGFEIFLSSFQGFLVSVLYCFINKEVQSEIRRGWHHCRLRRSLGEEQRQLPERAFRALPSGSGPGEVPTSRGLSSGTLPGPGNEASRELESYC
INS-1 cAMP (100 nM) [1]: 1.46 | AD293 100 pM HTRF [2]: 4.703 | AD293 100 nM HTRF [2]: 1.4229 | AD293 100 pM cADDis [3]: 41.2353 | AD293 100 nM cADDis [3]: 37.94 | Surface expression [4]: 0.7154 | +GIP internalisation (100 nM) [5]: 0.4635 | GIP-specific internalisation (100 nM) [5]: 0.1217 | Constitutive internalisation (100 nM) [5]: 0.3419 | Surface expression [5]: 0.6766 | Internalisation, +GIP [5]: 68.6221 | Internalisation, GIP-only [5]: 17.9918 | Internalisation, Vehicle [5]: 50.6302 | AD293 Surface [6, 7]: 0.7482 | AD293 Surface ([6]; paired with cAMP 100 pM): 0.7482 | Surface SNAP-GIPR expression ([6]; replicate 1): 0.8065 | Surface SNAP-GIPR expression ([6]; replicate 2): 0.9885 | Surface SNAP-GIPR expression ([6]; replicate 3): 0.6105 | Surface SNAP-GIPR expression ([6]; replicate 4): 0.8642 | Surface SNAP-GIPR expression ([6]; replicate 5): 0.9388 | Surface SNAP-GIPR expression ([6]; replicate 6): 0.763 | Surface SNAP-GIPR expression ([6]; replicate 7): 0.751 | Surface SNAP-GIPR expression ([6]; replicate 8): 0.7772 | Surface SNAP-GIPR expression ([6]; replicate 9): 0.3807 | Surface SNAP-GIPR expression ([6]; replicate 10): 0.8583 | Surface SNAP-GIPR expression ([6]; replicate 11): 0.7525 | Surface SNAP-GIPR expression ([6]; replicate 12): 0.8043 | Surface SNAP-GIPR expression ([6]; replicate 13): 1.071 | Surface SNAP-GIPR expression ([6]; replicate 14): 0.6911 | Surface SNAP-GIPR expression ([6]; replicate 15): 0.7162 | Surface SNAP-GIPR expression ([6]; replicate 16): 0.6632 | Surface SNAP-GIPR expression ([6]; replicate 17): 0.6439 | Surface SNAP-GIPR expression ([6]; replicate 18): 0.5804 | Surface SNAP-GIPR expression ([6]; replicate 19): 0.6207 | Surface SNAP-GIPR expression ([6]; replicate 20): 0.742 | Surface SNAP-GIPR expression ([6]; replicate 21): 0.7392 | Surface SNAP-GIPR expression ([6]; replicate 22): 0.5026 | Surface SNAP-GIPR expression ([6]; replicate 23): 0.762 | Surface SNAP-GIPR expression ([6]; replicate 24): 0.7507 | Surface SNAP-GIPR expression ([6]; replicate 25): 0.8473 | Surface SNAP-GIPR expression ([6]; replicate 26): 0.7374 | Surface SNAP-GIPR expression ([6]; replicate 27): 0.7405 | Surface SNAP-GIPR expression ([6]; replicate 28): 0.7355 | Surface SNAP-GIPR expression ([6]; replicate 29): 0.6896 | Surface SNAP-GIPR expression ([6]; replicate 30): 1.162 | Surface SNAP-GIPR expression ([6]; replicate 31): 0.7254 | Surface SNAP-GIPR expression ([6]; replicate 32): 0.7792 | Surface SNAP-GIPR expression ([6]; replicate 33): 0.8108 | Surface SNAP-GIPR expression ([6]; replicate 34): 0.9519 | Surface SNAP-GIPR expression ([6]; replicate 35): 0.6078 | Surface SNAP-GIPR expression ([6]; replicate 36): 0.6218 | Surface SNAP-GIPR expression ([6]; replicate 37): 0.8918 | Surface SNAP-GIPR expression ([6]; replicate 38): 0.4883 | Surface SNAP-GIPR expression ([6]; replicate 39): 0.768 | Surface SNAP-GIPR expression ([6]; replicate 40): 0.6348 | Surface SNAP-GIPR expression ([6]; replicate 41): 0.707
